Here are results for one substance from patent publication US20260234738A1.

The experiment has as its target SARS-CoV-2 spike protein variant Y483A on VSV pseudoparticles (SARS-CoV-2) (UniProt P0DTC2). The experiment in a line: cell-based or functional assay.

Substance mAb10987 (antibody) displayed a Relative neutralization at 5 µg/ml of 99%.
